Data on five molecules can be found in publication PMC4175335, “Thiosulfate Transfer Mediated by DsrE/TusA Homologs from Acidothermophilic Sulfur-oxidizing Archaeon Metallosphaera cuprina*” (The Journal of Biological Chemistry, 2014).

B1: DsrE3A (Mcup_0681) of Metallosphaera cuprina Ar-4, N-terminally His-tagged (natural protein, UniProt F4G1H3 1-133, looked up)
chain: MAQTQTEQAQEEQKKKILIVVTHGPEDLDRTYAPLFMASISASMEYETSVFFMIKGPLLLSKKWQEDERKKGGNPFIHFFDMAKDNNVKMYVCVQSLKDMCHMNESDVVDGIELVGGSTLIDLTLDADRTLFF
notes: DsrE3A, locus Mcup_0681, Metallosphaera cuprina Ar-4; gene amplified from genomic DNA into pET15b; theoretical mass with His tag 17,697 Da; Homotrimer by gel filtration
B2: TusA (Mcup_0683) of Metallosphaera cuprina Ar-4, N-terminally His-tagged (natural protein, UniProt F4G1H5 1-80, looked up)
chain: MAQDVKITKTLDVKGMYCPGPVMETAKAIKQINVGEVLEVLATDPAAKPDIEAWARRTGNQILDIQQQGGVTRILVKRAK
notes: TusA, locus Mcup_0683, Metallosphaera cuprina Ar-4; gene amplified from genomic DNA into pET15b; theoretical mass with His tag 10,895 Da; Occurs as monomers and dimers

For data set [1], the target named is DsrE3A-C93S with His-tag (Metallosphaera cuprina Ar-4). In words: SEC; oligomerization analysis, data not shown; proteins incubated with or without 25 μM TCEP at room temperature for 1 h; HiLoad 16/60 Superdex 75; 50 mM Tris-HCl (pH 7.5), 150 mM KCl; 0.5 ml/min. On the technique in general: Size exclusion chromatography separates by hydrodynamic size, large species first.

Data set [2] concerns the target DsrE3A-C93S/C101S with His-tag (Metallosphaera cuprina Ar-4). Described as above.
The target in data set [3] is DsrE3A-C101S with His-tag (Metallosphaera cuprina Ar-4). The data set is described as above.
Data set [4] concerns the molecule itself. The data set is described as above.
Data set [5] concerns the target B1. In words: SPR; Biacore 3000, CM5 chip, 25 °C; DsrE3A covalently immobilised (about 1500 RU); TusA as analyte in PBST (PBS, 0.005% Tween 20, pH 7.4), 30 μl/min, 2 min injection, 8 min dissociation. The conditions noted are these: both partners purified.

By stoichiometry N is commonly meant the number of molecules, sites or subunits per partner or assembly. As for “DsrE3A-C93S with His-tag (natural protein)”, in data set [1], the stoichiometry N was 3.
The molecule “DsrE3A-C93S/C101S with His-tag (natural protein)” yielded a stoichiometry N in data set [2] of 3.
In data set [3], “DsrE3A-C101S with His-tag (natural protein)” had a stoichiometry N of 3.
Take B1: the “stoichiometry N” value in data set [4] was determined as 3.
Usually Kd stands for the equilibrium constant for the complex coming apart. Higher therefore signals weaker binding. In the case of B2, in data set [4], the “stoichiometry N” value came out at 2. Besides, the Kd in data set [5] was 0.1 nM.
